In this assay the target is FOXO4 forkhead domain (FHD) (95-195) (UniProt P98177 95-195). The assay is described as follows: fluorescence polarisation. Background: Polarisation of emitted light reports the rotation of a fluorescent probe.

Ends that are not written are not given here.

Chain of FOXO4 forkhead domain (FHD) (95-195) (P98177 95-195): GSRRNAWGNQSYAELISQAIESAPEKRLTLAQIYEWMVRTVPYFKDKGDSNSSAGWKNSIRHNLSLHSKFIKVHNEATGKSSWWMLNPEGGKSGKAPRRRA

For DLMLSPDDIEQWFTED (also: FITC label, position not given here) [FITC-labeled p53 TAD PEP (42-57)], the Kd (commonly the equilibrium constant for the complex coming apart) worked out at 110 nM. In the case of ALMLSPAAIAQWFTAA [CAND], the “fold enhancement of inhibitory ability against p53 TAD PEP” value is around 3 fold.

(Values after article doi:10.1101/2024.09.04.610228 (bioRxiv, 2024).)
